Positions count from the first letter of the chain named.
T1: Human B7H3 extracellular domain and mFc fusion protein (B7H3-ECD-mFc) (human, UniProt Q5ZPR3 29-466)
T1 construct: extracellular domain; also called B7H3-mFc; B7H3-mFc Protein; not shown: mouse Fc (mFc)
T1 sequence (looked up): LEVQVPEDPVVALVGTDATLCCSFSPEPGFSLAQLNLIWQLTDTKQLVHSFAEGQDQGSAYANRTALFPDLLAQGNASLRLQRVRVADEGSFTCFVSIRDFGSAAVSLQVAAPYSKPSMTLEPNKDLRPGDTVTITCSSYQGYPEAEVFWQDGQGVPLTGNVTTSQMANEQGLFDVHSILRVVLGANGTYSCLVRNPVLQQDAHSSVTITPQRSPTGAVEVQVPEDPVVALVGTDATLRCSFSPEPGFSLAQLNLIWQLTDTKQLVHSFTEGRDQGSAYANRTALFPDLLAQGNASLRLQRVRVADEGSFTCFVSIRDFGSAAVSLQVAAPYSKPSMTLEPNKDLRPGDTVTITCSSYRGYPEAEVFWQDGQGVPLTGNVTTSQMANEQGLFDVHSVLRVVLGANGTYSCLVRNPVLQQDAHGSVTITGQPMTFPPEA

T2: B7H3 on the cell surface (PC9 cells; 293T-B7H3 cells) (UniProt Q5ZPR3 29-534, limits assumed)
T2 construct: whole, on cells; both carry B7H3 on the surface; also called Cell Surface B7H3; B7H3 protein in PC9 cells
T2 sequence (looked up): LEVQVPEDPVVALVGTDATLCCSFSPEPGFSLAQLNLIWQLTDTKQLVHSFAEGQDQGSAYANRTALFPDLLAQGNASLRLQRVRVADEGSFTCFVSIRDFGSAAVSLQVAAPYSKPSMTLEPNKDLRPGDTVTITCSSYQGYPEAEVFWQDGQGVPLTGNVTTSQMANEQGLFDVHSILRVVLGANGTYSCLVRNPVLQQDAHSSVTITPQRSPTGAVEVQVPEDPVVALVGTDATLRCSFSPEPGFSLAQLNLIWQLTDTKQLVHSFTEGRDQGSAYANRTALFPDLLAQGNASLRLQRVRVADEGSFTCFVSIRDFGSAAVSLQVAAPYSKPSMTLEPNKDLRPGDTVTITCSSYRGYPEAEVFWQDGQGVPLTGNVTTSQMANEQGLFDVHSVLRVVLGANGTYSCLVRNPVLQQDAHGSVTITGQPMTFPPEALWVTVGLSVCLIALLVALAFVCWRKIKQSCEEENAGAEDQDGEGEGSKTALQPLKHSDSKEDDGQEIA

B1: hu2A9 (antibody, IgG1, V domains shown)
VH: QVQLVQSGAEVKKPGASVKVSCKTSGYTFTEYIMHWVRQAPGQGLEWIGGINPNSGGTTYNEKFKGRATLTVDKSISTAYMELSRLRSDDTAVYYCARRMPYWYFDVWGQGTMVTVSS
VL: EIVLTQSPATLSLSPGERATLSCSASSSVSYIHWYQQKPGQAPRRWVYDTSKLASGIPARFSGSGSGTDYTLTISSLEPEDFAVYYCQQWVSNPLTFGQGTKLEIK
notes: expressed in 293 cells; also called humanized antibody 2A9; humanized 2A9
B2: hu4F11 (antibody, IgG1, V domains shown)
VH: QVQLVQSGAEVKKPGASVKVSCKTSGYTFTEYIMHWVRQAPGQGLEWIGGINPNTGGITYNQKFKDRATLTVDKSISTAYMELSRLRSDDTAVYYCARAGGNFLWYFDVWGQGTMVTVSS
VL: B1 VL with I32M, V47L, V91N
notes: expressed in 293 cells; also called humanized antibody 4F11; humanized 4F11
B3: hu5B6 (antibody, IgG1, V domains shown)
VH: QVQLVQSGAEVKKPGSSVKVSCKASGYTFITYTIHWVRQAPGQGLEWIGYINPTSDYANFNQKFKDRATLTADKSTSTAYMELSSLRSEDTAVYYCARWGTTVFQFYFDYWGQGTLVTVSS
VL: EIVLTQSPATLSLSPGERATLSCRASQSLSYINWYQQKPGKAPKPWIYATSSLQSGVPSRFSGSASGTDYTLTISSLQPEDFATYYCQHWSSDPPTIGGGTKVEIK
notes: expressed in 293 cells; also called humanized antibody 5B6; humanized 5B6
B4: hu9C8 (antibody, IgG1, V domains shown)
VH: QVQLVQSGAEVKKPGASVKVSCKASGYTFTEYTIHWVRQAPGQGLEWIGGINPNSGGTTYNLKFKGRATLTVDKSTSTVYMELSSLRSEDTAVYYCARKEGFFTTDYWGQGTLVTVSS
VL: B1 VL with I2T, V29L, V47I, K52N, S55T, V91H, S92Y, L95P, Q99G, L103V
notes: expressed in 293 cells; also called humanized antibody 9C8; humanized 9C8
B5: hu15A2 (antibody, IgG1, V domains shown)
VH: QVQLVQSGAEVKKPGASVKVSCKASGYTFTSYDINWVRQATGQGLEWIGWIDPGDGSTKYNEKFKGRATLTANKSISTAYMELSSLRSEDTAVYYCVRRGFDYWGQGTLVTVSS
VL: EIVLTQSPATLSLSPGERATLSCRTSSSVSYLHWFQQKPGQAPRLWIHDTSNLASGFPARFSGSGSGTDYTLTISSLEPEDFAVYYCHQRSSYPWTFGGGTKVEIK
notes: expressed in 293 cells; also called humanized antibody 15A2
B6: hu7B7 (antibody, IgG1, V domains shown)
VH: EVQLVESGGGLVKPGGSLRLSCAASGFTFSSYAVSWVRQAPGKGLEWVASISGGGIYIYYPDSVKGRFTISRDNAKNSLYLQMNSLRAEDTAVYYCARHGGAGYFDYWGQGTLVTVSS
VL: DSQMTQSPSSLSASVGDRVTITCRGSESVHSYLAWYQQKPGKAPKLLVYNAKTLQSGVPSRFSGSGSGTDFTLTISSLQPEDFATYYCQQHYGSPPWTFGGGTKVEIK
notes: expressed in 293 cells; also called humanized antibody 7B7

Key:
[1] = biological target: T1, Human B7H3 extracellular domain and mFc …; test: ELISA, B7H3-mFc protein (table title), humanized IgG1
[2] = biological target: T2, B7H3 on the cell surface (PC9 cells; …); test: FACS, cell surface B7H3 (PC9 cells per FIG. 10)

Row | Binder | EC50 [1] [mg/L] | EC50 [2] [mg/L]
1 | B1 | 0.0175 | 0.14
2 | B2 | 0.0406 | 0.127
3 | B3 | 0.0127 | 0.0621
4 | B4 | 0.0199 | 0.079
5 | B5 | 0.00384 | 0.0143
6 | B6 | 0.00635 | 0.0113

Reference: patent US20250276082A1 (INNOLAKE BIOPHARMA HANGZHOU, published 2025)
